Target: NA of B/New York/PV00094/17 (Y), on purified virus (Influenza B virus B/New York/PV00094/17)

Binder	percent competition
3C01 monoclonal antibody (BNA-mAb) (antibody, V domains shown) VH: EVQLVESGGGLVQPGGSLRLSCAASGFPFSHYYMHWVRRAPGKGLVWVSRIYSDGTSSSYGDSVKGRFTISRDNAKNILYLQMNSLRAEDSATYYCCRGGYYSLDGFDFWGQGTMVTVSS VL: DIQMTQSPLSLSVSEGDRVTITCRASQGIGNDLGWYQLKPGKAPKRLIYGASSLQSGVPSRFSGSGSGTEFTLTISSLQPEDFATYFCLQHSSFPYTFGQGTKVEIK	90%
2H09 monoclonal antibody (BNA-mAb) (antibody, V domains shown) VH: EVQLVESGGGLVQPGGSLRLSCAASGVTLDNYWVHWVRQVPGKGLVWVSRINADGTSKTYADSVKGRFTISRDTTRNTLFLQMNSLRGDDTALYFCARGGLYSSDAFDVWGQGTMVTVSS VL: QSALTQPPSASGSPGQSVTISCTGTSWDVGRYNHVSWYQHHPGKAHKLIIYEVNRRPSGVPDRFSGSKSANTASLTVSGLQAEDEADYYCSSYTGNNVAVFGGGTKLTVL	90%

Reference: patent US20230077716A1
